# Laboratory results: patent US12338268B2, “Compositions and methods for treating protein aggregation-associated diseases” (The Board of Trustees of the Leland Stanford Junior …, priority 2019, dated 2025)
# How the values were obtained:
# AtxQ78 = biological target: T1, AtxQ78 (Homo sapiens, UniProt P54252, INS305QQQQQQQQQQQQQQQQQQQQQQQQQQQQQQQQQQQQQQQQQQQQQQQQQQQQQQQQQQQQQQQQ); experiment: Chemical crosslinking (BS3) and mass spectrometry of NAC-AtxQ78 complexes; assay type: binding; conditions: NAC and AtxQ78 1:1, BS3 crosslinker, LC-MS
# T1 construct: full-length Ataxin-3 harboring a stretch of 78 glutamines (AtxQ78); made in house
# T1 sequence (P54252 with tags, fused parts or gaps with the stated changes): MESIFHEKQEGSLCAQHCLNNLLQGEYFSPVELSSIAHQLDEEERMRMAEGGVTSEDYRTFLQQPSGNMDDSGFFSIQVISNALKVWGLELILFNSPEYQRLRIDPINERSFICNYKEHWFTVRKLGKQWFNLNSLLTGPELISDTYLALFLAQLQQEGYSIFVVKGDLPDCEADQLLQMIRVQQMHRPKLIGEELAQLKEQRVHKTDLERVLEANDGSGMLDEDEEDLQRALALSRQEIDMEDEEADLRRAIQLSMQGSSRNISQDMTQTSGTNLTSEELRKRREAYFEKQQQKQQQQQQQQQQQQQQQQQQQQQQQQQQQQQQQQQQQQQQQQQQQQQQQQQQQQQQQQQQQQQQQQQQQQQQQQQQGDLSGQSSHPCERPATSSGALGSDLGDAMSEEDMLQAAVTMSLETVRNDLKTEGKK
# Description: For crosslinking AtxQ78 was buffer exchanged into 10 mM sodium phosphate (pH 7.2) and added to NAC at a 1:1 ratio (20 μM NAC+20 μM AtxQ78). A 1:1 mixture of BS^3-d^0 and BS^3-d^4 was added to the proteins at 20× and 50× molar excess and the reaction allowed to proceed at room temperature for 1 hour before quenching with the addition of 50 mM Tris-Cl (pH 7.5). Samples were diluted with 2× loading buffer and separated on Tris-tricine gels followed by staining with InstantBlue (Expedeon).
# Gel pieces containing the crosslinked complexes were washed with 25 mM ammonium bicarbonate (pH 7.8) for 1 h with shaking. The solution was removed and the pieces destained three times with 25 mM ammonium bicarbonate in 60% acetonitrile. Gel pieces were dehydrated with 100% acetonitrile for 10 min and left to air-dry in a laminar flowhood for 1 h. Rehydration of the gel pieces was achieved by adding 0.1 mg/ml trypsin solution and incubating the samples on ice for 30 min. Excess trypsin was removed and the samples were incubated at 37° C. and 1000 rpm overnight. Peptides were extracted from the gel using 3 washes with 60% acetonitrile/5% formic acid. The extracts were pooled and concentrated using a SpeedVac before being analyzed using a nanoACQUITY LC-system coupled to a Synapt HDMS G2Si mass spectrometer. […]
# [1] = tested on: PolyQ35::YFP C. elegans worms; experiment: Paralysis assay; assay type: in vivo; conditions: overexpression; day 6 to 10 of adulthood
# Description: To analyze the percentage of paralyzed worms, 100 semi-synchronized (timed egg lay for 5 h) young adult worms of each strain were placed on a plate containing 150 μM 5-fluorodeoxyuridine. Screening of paralyzed worms was started at day 6 of adulthood.
# α-synuclein = α-synuclein (Homo sapiens, UniProt P37840); conditions: Martin et al., 2018; cited from earlier work
# FlucDM-EGFP = biological target: T2, FlucDM-EGFP (Photinus pyralis, UniProt P08659, R188Q/R261Q); experiment: FlucDM-EGFP aggregation after heat-shock in C. elegans; assay type: in vivo; conditions: overexpressed in muscle cells; heat-shock 1 h, 33° C.; 24 h recovery at 20° C.
# T2 construct: expressed in transfected cells; host or cells: C. elegans muscle cells (transgenic strain, unc-54 promoter)
# T2 sequence (P08659 whole entry R188Q/R261Q): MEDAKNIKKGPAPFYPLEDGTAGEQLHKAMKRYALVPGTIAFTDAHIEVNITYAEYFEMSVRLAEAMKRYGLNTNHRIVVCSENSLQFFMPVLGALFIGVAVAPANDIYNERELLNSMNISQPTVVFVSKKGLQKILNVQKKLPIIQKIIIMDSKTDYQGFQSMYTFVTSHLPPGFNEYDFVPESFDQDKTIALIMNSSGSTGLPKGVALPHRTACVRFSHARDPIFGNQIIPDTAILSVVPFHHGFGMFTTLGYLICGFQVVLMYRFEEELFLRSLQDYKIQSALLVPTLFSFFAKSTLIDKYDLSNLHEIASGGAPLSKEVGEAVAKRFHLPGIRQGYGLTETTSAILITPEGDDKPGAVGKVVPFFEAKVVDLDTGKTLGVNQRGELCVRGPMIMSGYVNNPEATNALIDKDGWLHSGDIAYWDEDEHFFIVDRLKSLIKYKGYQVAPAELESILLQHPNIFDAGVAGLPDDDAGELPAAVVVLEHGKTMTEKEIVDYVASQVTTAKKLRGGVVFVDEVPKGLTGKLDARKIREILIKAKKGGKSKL
# Description: We further investigated NAC activity on luciferase refolding in vivo using a C. elegans strain expressing a structurally destabilized version of luciferase fused to EGFP (FlucDM-EGFP) in muscle cells (Gupta et al., 2011). This protein is soluble at moderate temperature but aggregates upon heat stress. After heat-shock (1 h, 33° C.) of worms, FlucDM-EGFP formed large punctate aggregates which were still evident in control animals after 24 h recovery at 20° C. (FIG. 4B, “ev”). […] Thus, efficient luciferase refolding by NAC depends on N-βNAC, in vitro and in vivo.
# Worms were cultured according to standard techniques with E. coli OP50 as food source (Brenner, 1974). Transgenic strains were generated using standard microinjection protocols (Mello and Fire, 1995). Constructs for overexpression of NAC in body wall muscles were generated by cloning the coding sequences of icd-1 (βNAC) and icd-2 (αNAC) into a vector containing the myo-3 promoter and the unc-54 3′-untranslated region (UTR). The NAC genes were N-terminally tagged with 3×FLAG. Mutant NAC constructs were generated by standard mutagenesis protocols. AM140 (unc-54p::Q35::YFP) and FlucDM-EGFP (unc-54p::luciferase::GFP) worms were injected with 25 ng/μl of each NAC plasmid together with myo-2p::mCherry (2.5 ng/μl) and DNA ladder (100 ng/μl, GeneRuler 1 kb, Thermo Scientific). […]
# [2] = biological target: GdmCl-denatured firefly luciferase (Photinus pyralis, UniProt P08659); experiment: Luciferase refolding assay; assay type: biochemical; conditions: denatured luciferase preincubated 1:1 for 15 min at room temperature before adding Hsp70/Hsp40
# Sequence of GdmCl-denatured firefly luciferase (P08659 whole entry): as the sequence (P08659 whole entry R188Q/R261Q) above, with Q188R, Q261R counted along it
molecule,measurement,setting,value
"NAC: nascent polypeptide-associated complex, heterodimer of αNAC and βNAC; species not given at the place (C. elegans icd-1/icd-2 when overexpressed in worms) (protein) chain 1: MTGSTETRQKEVKEPQVDVSDDSDNEAVEQELTEEQRRVAEAAGLGDHIDKQAKQSRSEKKARKLFSKLGLKQVTGVSRVCIRKSKNILFVINKPDVFKSPGSDTYIIFGEAKIEDLTQHAQMSAIENLKPTREAPQLKTVEEDENEDVEEDSTGIEEKDIELVISQANTTRNKAIRALKEADNDIVNAIMSLTM chain 2: MMDSKAIAERIKKLQAQQEHVRIGGKGTPRRKKKVIHKTAAADDKKLQSNLKKLSVTNIPGIEEVNMIKDDGTVIHFNNPKVQTSVPANTFSVTGSADNKQITEMLPGILNQLGPESLTHLKKLANNVTKLGPDGKGEDEDVPELVGDFDAASKNETKADEQ",NAC regions crosslinked to AtxQ78,AtxQ78,predominantly crosslinked to AtxQ78 via the N-terminal regions of αNAC and βNAC
same,motility / age-associated paralysis of PolyQ35::YFP-expressing worms,[1],significantly improves motility
same,aggregation of α-synuclein,α-synuclein,suppresses aggregation
same,FlucDM-EGFP aggregates after heat-shock and recovery,FlucDM-EGFP,fully revert back to diffuse GFP signal
same,luciferase refolding by the Hsp70/Hsp40 system,[2],strongly enhanced over levels of just Hsp70/Hsp40 refolding
